# Assay results taken from publication PMC4879639 (2016).
# T1: recombinant mouse sortilin (mouse, UniProt Q6PHU5 74-754)
# T1 chain: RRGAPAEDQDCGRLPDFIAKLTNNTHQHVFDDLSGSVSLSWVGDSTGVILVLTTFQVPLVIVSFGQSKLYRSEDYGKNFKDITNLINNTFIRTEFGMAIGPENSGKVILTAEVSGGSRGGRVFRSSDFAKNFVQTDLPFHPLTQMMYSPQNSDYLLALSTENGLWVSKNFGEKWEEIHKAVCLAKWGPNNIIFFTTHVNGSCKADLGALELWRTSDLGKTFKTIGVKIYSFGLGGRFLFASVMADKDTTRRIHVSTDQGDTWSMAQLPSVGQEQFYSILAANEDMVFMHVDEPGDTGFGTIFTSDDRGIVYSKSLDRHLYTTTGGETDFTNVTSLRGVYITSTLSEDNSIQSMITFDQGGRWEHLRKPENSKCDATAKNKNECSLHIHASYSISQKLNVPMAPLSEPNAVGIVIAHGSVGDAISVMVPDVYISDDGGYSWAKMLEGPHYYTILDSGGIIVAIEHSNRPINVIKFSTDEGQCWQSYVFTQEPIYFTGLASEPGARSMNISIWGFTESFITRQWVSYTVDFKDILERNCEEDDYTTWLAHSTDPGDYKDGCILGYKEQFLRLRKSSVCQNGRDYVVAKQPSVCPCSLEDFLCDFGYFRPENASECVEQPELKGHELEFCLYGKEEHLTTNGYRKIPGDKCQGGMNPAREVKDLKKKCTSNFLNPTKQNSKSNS
# B1: recombinant IL-17A (ligand)
# chain: AAIIPQSSACPNTEAKDFLQNVKVNLKVFNSLGAKVSSRRPSDYLNRSTSPWTLHRNEDPDRYPSVIWEAQCRHQRCVNAEGKLDHHMNSVLIQQEILVLKREPESCPFTFRVEKMLVGVGCTCVASIVRQAA
# B2: recombinant IL-10 (ligand)
# chain: SRGQYSREDNNCTHFPVGQSHMLLELRTAFSQVKTFFQTKDQLDNILLTDSLMQDFKGYLGCQALSEMIQFYLVEVMPQAEKHGPEIKEHLNSLGEKLKTLRMRLRRCHRFLPCENKSKAVEQVKSDFNKLQDQGVYKAMNEFDIFINCIEAYMMIKMKS
# B3: recombinant IL-6 (ligand)
# chain: FPTSQVRRGDFTEDTTPNRPVYTTSQVGGLITHVLWEIVEMRKELCNGNSDCMNNDDALAENNLKLPEIQRNDGCYQTGYNQEICLLKISSGLLEYHSYLEYMKNNLKDNKKDKARVLQRDTETLIHIFNQEVKDLHKIVLPTPISNALLTDKLESQKEWLRTKTIQFILKSLEEFLKVTLRSTRQT
# B4: recombinant IFN-γ (ligand)
# chain: HGTVIESLESLNNYFNSSGIDVEEKSLFLDIWRNWQKDGDMKILQSQIISFYLRLFEVLKDNQAISNNISVIESHLITTFFSNSKAKKDAFMSIAKFEVNNPQVQRQAFNELIRVVHQLLPESSLRKRKRSRC
# B5: recombinant IL-12 (complex)
# chain 1: RVIPVSGPARCLSQSRNLLKTTDDMVKTAREKLKHYSCTAEDIDHEDITRDQTSTLKTCLPLELHKNESCLATRETSSTTRGSCLPPQKTSLMMTLCLGSIYEDLKMYQTEFQAINAALQNHNHQQIILDKGMLVAIDELMQSLNHNGETLRQKPPVGEADPYRVKMKLCILLHAFSTRVVTINRVMGYLSSA
# chain 2: MWELEKDVYVVEVDWTPDAPGETVNLTCDTPEEDDITWTSDQRHGVIGSGKTLTITVKEFLDAGQYTCHKGGETLSHSHLLLHKKENGIWSTEILKNFKNKTFLKCEAPNYSGRFTCSWLVQRNMDLKFNIKSSSSSPDSRAVTCGMASLSAEKVTLDQRDYEKYSVSCQEDVTCPTAEETLPIELALEARQQNKYENYSTSFFIRDIIKPDPPKNLQMKPLKNSQVEVSWEYPDSWSTPHSYFSLKFFVRIQRKKEKMKETEEGCNQKGAFLVEKTSTEVQCKGGNVCVQAQDRYYNSSCSKWACVPCRVRS
# B6: GST-fused mouse IFN-α (ligand)
# chain: CDLPHTYNLRNKRALKVLAQMRRLPFLSCLKDRQDFGFPLEKVDNQQIQKAQAIPVLRDLTQQTLNLFTSKASSAAWNATLLDSFCNDLHQQLNDLQTCLMQQVGVQEPPLTQEDALLAVRKYFHRITVYLREKKHSPCAWEVVRAEVWRALSSSVNLLPRLSEEKE
# Target: T1, recombinant mouse sortilin
# Test: SPR
row,Binder,Kd
1,B1,335 nM
2,B2,287 nM
3,B3,1100 nM
4,B4,2600 nM
5,B5,13.6 nM
6,B6,550 nM
